# Biological target: T1, Bcl-2 (endogenous, THP-1 cells) (human (endogenous in THP-1), UniProt P10415 1-239)
# T1 construct: Bcl-2 (B-cell lymphoma 2), endogenous in the human macrophage cell line THP-1; immunoprecipitated with anti-Bcl-2 antibody; also called B-cell lymphoma 2; source: endogenous, THP-1 lysate
# Experiment: co-IP; endogenous proteins; Bcl-2 immunoprecipitated from THP-1 lysates; cells basal or LPS 50 ng/ml 5 h + nigericin 5 uM 30 min (Fig. 1b); PMA treated cells with or without TNFa 20 ng/ml, 100 nM Smac mimetic, 20 uM z-VAD-FMK for 3 h (Fig. 5d); lysis buffer 20 mM HEPES pH 7.4, 0.5% Triton X-100, 0.5% CHAPS, 10% glycerol; washed eight times
# Settings: partners not purified
# T1 sequence (P10415 whole entry): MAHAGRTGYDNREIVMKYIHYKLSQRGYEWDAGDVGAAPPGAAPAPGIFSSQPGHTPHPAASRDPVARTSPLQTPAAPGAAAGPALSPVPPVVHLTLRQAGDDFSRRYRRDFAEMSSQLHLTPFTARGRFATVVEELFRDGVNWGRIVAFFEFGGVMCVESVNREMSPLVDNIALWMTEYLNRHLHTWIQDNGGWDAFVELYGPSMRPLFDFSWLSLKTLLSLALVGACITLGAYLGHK
binder,measurement,value
"gasdermin D (endogenous, THP-1 cells) (natural protein, human (endogenous in THP-1), UniProt P57764 1-484, looked up, gasdermin D (GSDMD), endogenous in the human macrophage cell line THP-1; also called GSDMD; source: endogenous, THP-1 lysate) MGSAFERVVRRVVQELDHGGEFIPVTSLQSSTGFQPYCLVVRKPSSSWFWKPRYKCVNLSIKDILEPDAAEPDVQRGRSFHFYDAMDGQIQGSVELAAPGQAKIAGGAAVSDSSSTSMNVYSLSVDPNTWQTLLHERHLRQPEHKVLQQLRSRGDNVYVVTEVLQTQKEVEVTRTHKREGSGRFSLPGATCLQGEGQGHLSQKKTVTIPSGSTLAFRVAQLVIDSDLDVLLFPDKKQRTFQPPATGHKRSTSEGAWPQLPSGLSMMRCLHNFLTDGVPAEGAFTEDFQGLRAEVETISKELELLDRELCQLLLEGLEGVLRDQLALRALEEALEQGQSLGPVEPLDGPAGAVLECLVLSSGMLVPELAIPVVYLLGALTMLSETQHKLLAEALESQTLLGPLELVGSLLEQSAPWQERSTMSLPPGLLGNSWGEGAPAWVLLDECGLELGEDTPHVCWEPQAQGRMCALYASLALLSGLSQEPH",fold change of GSDMD associated with Bcl-2 after LPS and nigericin against basal conditions,2.4 fold

# From PMC6901440, “Bcl-2 regulates pyroptosis and necroptosis by targeting BH3-like domains in GSDMD and MLKL” (Cell Death Discovery, 2019)
